± gives the half width of the 95% confidence interval.
Experiments:
[1] = folding stability dG unfold (combined trypsin and chymotrypsin); higher = more stable
Procedure, shortened: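 Only designs with AlphaFold2 dimer inter-PAE above 15 were retained; each was a mini-protein under 80 residues with no cysteine, in a PA-tagged cDNA display construct. After digestion with trypsin and chymotrypsin and sequencing, K50 was inferred by Bayesian fitting of counts, and unfolding free energy was derived per protease or combined against a sequence-predicted unfolded-state K50 and a shared folded-state K50.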

[2] = folding stability dG unfold from chymotrypsin proteolysis; higher = more stable
Experimental: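 Folding stability of de novo designed mini-proteins (<80 aa, no Cys; designed by TrROS, TrMRF, ProteinMPNN and the joint model) was measured by cDNA display proteolysis with trypsin and chymotrypsin. Each protease was used at 11 concentrations in a threefold dilution series plus a no-protease condition. K50 was inferred by Bayesian fitting of sequencing counts, and dG unfold was derived against a sequence-predicted unfolded-state K50 (Tsuboyama et al. method). Sequences shown include variable-length N-terminal GS-type padding (SAGGSAGG...) inside a display construct carrying a PA tag. Rows were kept only if the AF2 dimer inter-PAE was >15, to exclude likely homo-oligomers.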

Sequence | folding stability dG unfold [1] | folding stability dG unfold [2]
SAGGSAGGSAGGLIPPNQKIKIKEIEPPNNEMNIDLEYPDNGKKVEFPFDSPEQALDALSAGGSAGGSAGGS [r10_1038_TrROS] | 0.227 ± 0.14 kcal/mol | 0.658 ± 0.049 kcal/mol
SAGGKPKITITIEKLPDGTIRITITYEDGSKVEIEAKVTYDPKTNTLTIEVTIKINGKTYKITITFKSAGGS [r16_391_TrROS_Hall] | 4.35 ± 0.68 kcal/mol | 4.4 ± 0.29 kcal/mol
SAGGSAGGSIPPGEEVPLRIKIWNPDNGKPRNEIPITMWVGDAEEIAEEFASTFPGYRVEIDPSAGGSAGGS [r12_21_TrROS] | 0.102 ± 0.33 kcal/mol | 0.717 ± 0.23 kcal/mol
SAGGSAGGSAGGGEYAKIKIKNPINPKYKEIEIEIPSNKKNVIINATGSGNATITEIKLESAGGSAGGSAGG [r7_687_TrMRF] | -0.584 ± 0.49 kcal/mol | 0.177 ± 0.27 kcal/mol
SAGGSAGGSARIDFPAIRRLLGSEAPAEDVVEAVEVIAKELAEELNLPDVEVDPRVVAPDELESAGGSAGGS [r12_666_TrMRF] | 0.102 ± 0.22 kcal/mol | 0.638 ± 0.068 kcal/mol
SAGGDPEEQNKMMERMEKMKPIEPEPVRIPNGIEIEYWPAYGFVEIETWYRDPDGEPKPIGEGWVPVSAGGS [r16_243_TrROS] | -0.147 ± 0.12 kcal/mol | 0.286 ± 0.094 kcal/mol
SGMPPVSVSSIEPVSVSPDGTSRTFRAPLTTPSGEPVTYTGPVSEILKRVEEEGWGPTASAPGGLVEVRDSA [r9_1078_JUSTAS] | -0.583 ± 0.1 kcal/mol | -0.368 ± 0.12 kcal/mol
SAGGSAGGSAGMKYIEEAKAKAKPDKKLKITIPPSLPVEEVRKELLEEVPIDDVEFIKNLSAGGSAGGSAGG [r11_524_JUSTAS] | < -1 kcal/mol | -0.491 ± 0.26 kcal/mol
SAGGSAGGSAGGPRVGVVRELPDDSRVALLEIEETLTSPGPDGTPRSRPFRAVFVVPLGSAGGSAGGSAGGS [r10_718_TrMRF] | -0.16 ± 0.18 kcal/mol | 0.69 ± 0.26 kcal/mol
SAGGSAGSHNQSPDGITLDAPLSSEEEIEALVAEVKAAAPPTYTVTVERTRSPSTLSVDVIVTAAPSAGGSA [r15_80_JUSTAS] | -0.895 ± 0.97 kcal/mol | -0.579 ± 0.19 kcal/mol
SAGGEVPVSAEAAAAYDRAVAEGGGGATVPVETPGGRVIVYDPAGTATVLGDDPRTFPLAEVTAFAPSAGGS [r16_664_JUSTAS] | 0.246 ± 0.072 kcal/mol | 0.923 ± 0.059 kcal/mol
SAGGSAGGSAGMRLLVEKPEGPVPTVTEVEVPLPEGDKARLEEVKEELKKKGYKKVIFLDSAGGSAGGSAGG [r11_196_JUSTAS] | < -1 kcal/mol | -0.417 ± 0.37 kcal/mol
SAGGGSMYDPETGTLRDENGNFFRTEEKKIPEVVIELPIELPDNTTLVIPVKFRTEEEAEKAVEELLSAGGS [r8_440_JUSTAS] | -0.191 ± 0.33 kcal/mol | 0.0268 ± 0.23 kcal/mol
SAGGSAGGSAGGPSSLLDGTPVELSVSPVEVNSVSTVTLPNGSTVPVSKKVKKTVVSVVASAGGSAGGSAGG [r7_90_JUSTAS] | 0.23 ± 0.097 kcal/mol | 0.61 ± 0.075 kcal/mol
SALEPGEWRKVTAEIPLPGGPLKLEIYEWPSNGHYYADIRNPGNGRPVEIPFPFDTPDDAVDEAKDFIRSAG [r14_65_TrROS] | -0.625 ± 0.63 kcal/mol | 0.101 ± 0.4 kcal/mol
SAGGSAGGSAGGGMRLVEVPPGDPAAVEARLAELGPDARLLEVRRLPEEGRWVVLVSEESAGGSAGGSAGGS [r10_23_JUSTAS] | -0.258 ± 0.33 kcal/mol | 0.643 ± 0.2 kcal/mol
SAGMEEILEAAREAIEAGLTVRIEVTFKDGKKEEIEIEVESLEELLEALEKLDEIESVKIEVLAPGEEPSAG [r5_956_TrROS_Hall] | 3.61 ± 0.95 kcal/mol | 2.95 ± 0.15 kcal/mol
SAGMPVLVSAPIPLARGPDGVARIDPALVRALAEAAGFTGRVESVEVRPLPDSYLVAVRLPDSVLLGESAGG [r19_398_TrMRF] | -0.31 ± 0.11 kcal/mol | 0.672 ± 0.077 kcal/mol

Sequence | folding stability dG unfold [1] | folding stability dG unfold [2]
SAGSETVLKTTTEPRTEPDSEVETTTEVYPDGKRITRTTTTYPNPGEGNPATPVTTTTTTVTELPPNELSAG [r5_224_JUSTAS] | < -1 kcal/mol | -0.378 ± 0.12 kcal/mol
SAGGSAGGSMPVTVTVTTPDGTTQTLTADAPPAQTFTVTVTGPDGDPRPVRVTVHGTTVTVEGSAGGSAGGS [r12_784_TrMRF] | < -1 kcal/mol | 0.227 ± 0.22 kcal/mol
SAGGSAGGSAGGMRTFPSESLETLPENGLRKKTLTVTYVPPDNPERSYVETEVEIIPSEVSAGGSAGGSAGG [r17_241_JUSTAS] | < -1 kcal/mol | -1.03 ± 0.34 kcal/mol
SMVYVPEKNVIIEESEKLFYDPNKPRDLRVKTTPVIEVSPSGEKKTLKTEITFYNPEGNPIFTEESEIEISA [r9_383_JUSTAS] | < -1 kcal/mol | -0.399 ± 0.22 kcal/mol
SAGGSAGGSAMKITINVSPDEPGVTIEEAKKRLAPHPVEKVTQTPLPSNSLVVTVDVSPEASAGGSAGGSAG [r3_335_JUSTAS] | < -1 kcal/mol | -0.457 ± 0.2 kcal/mol
SAGGLVREAAAEAGATGVDIREEVPDPNGGTVVTVLPRPGLSPEEAAAVRARIEAAIAEREPGATVVLESAG [r5_101_JUSTAS] | -0.142 ± 0.11 kcal/mol | 0.161 ± 0.029 kcal/mol
SAGGSAGGSGGMMVTITLPPGVPPSVVRAALEPLGVRVEVRPVPPVVPFRYPEPGELVFSPLGSAGGSAGGS [r12_80_JUSTAS] | < -1 kcal/mol | 0.373 ± 0.17 kcal/mol
SAGGSAGGSELRVLDARPTPDGLVVNLVAPDRLLVTRVDTGADGSQSVSSVVLDAPESTEFDLSAGGSAGGS [r12_981_TrMRF] | < -1 kcal/mol | -0.918 ± 0.36 kcal/mol
SAGGSAGGSAGGSAVTSDGTEVEPDQLVEEATLTPPDGEPVRLRVYAVPDSDEVVTEAGSAGGSAGGSAGGS [r4_13_TrMRF] | < -1 kcal/mol | 0.691 ± 0.26 kcal/mol
SAGGSAGGSAGGSMETVEVTEVSFDPSKGTRFVKTTVTRKDEKGNWVEKEEWITEPVLGSAGGSAGGSAGGS [r4_85_JUSTAS] | -0.0805 ± 0.12 kcal/mol | 0.338 ± 0.059 kcal/mol
SAGGSAGGSALPPGEPVEFPWRIKMGGEEHDVKRTVYRDPDGNVKLNIEIPMPPGNFEIEPVSAGGSAGGSA [r18_428_TrROS] | -0.451 ± 0.4 kcal/mol | 0.206 ± 0.22 kcal/mol
SAGGAPIPTVSTRTTPLPGGSSRTTTTTTYTFPETGTVYTATTTTTASPGGSPTTTATTTTTALAAASAGGS [r16_113_JUSTAS] | -0.507 ± 0.23 kcal/mol | 0.0663 ± 0.26 kcal/mol
SAGMKTLTGPPEVLEELVEKALKENPNAKTVTIVDGDKSVTVPKDEEVEFLEPAPQPDGEPYVTIEILESAG [r5_130_JUSTAS] | 0.101 ± 0.13 kcal/mol | 0.669 ± 0.048 kcal/mol
SAGGSVLVTLTNPADGTPVTLPTPAEEAEAILASGDTAALEARHPGRPVAAVTVDPVSPRPPVPPGLASAGG [r13_629_JUSTAS] | -0.651 ± 0.38 kcal/mol | 0.223 ± 0.095 kcal/mol
SAGGSAGGSAGGSWMRMEAEVRHPNKRDVTIPIPYRSKDGEPDMKERAKEFARELAKDYSAGGSAGGSAGGS [r4_168_TrROS] | < -1 kcal/mol | -0.315 ± 0.21 kcal/mol
SAGGMTIPLEFEFESEEEAKEKAEEIAEELAKSFPEYEVEVKIEIKPVKDPNSDTTKWRVKMEITVGPSAGG [r13_545_JUSTAS] | 4.56 ± 0.31 kcal/mol | 4.38 ± 0.2 kcal/mol
SAGVEPTPDGKWRIEINPEEGHIRVRMKNGEPHEIPFPEGSLDDFADEIAEKMGFPPDKPFKIDEIEIWSAG [r5_923_TrROS] | -0.273 ± 0.19 kcal/mol | -0.0363 ± 0.21 kcal/mol
SAGGGPMPKPVEEVVEEEEDGLRVTTRITYLPTSSTTVVRTTRTVFDPRNGRPLETEELTETVPPGSSAGGS [r16_709_JUSTAS] | -0.181 ± 0.22 kcal/mol | -0.0368 ± 0.23 kcal/mol
